These are literature values, as cited in US7696205B2, “Cyclic derivatives as modulators of chemokine receptor activity” (Bristol-Myers Squibb Company, priority 2003, dated 2010).

The data set deals with MCP-1 expression in peripheral blood mononuclear cells. The note with it: effective therapy in human multiple sclerosis.

B1: interferon b-1b: effective therapy in human multiple sclerosis (protein, UniProt P01574 22-187, looked up, variant C17S)
Interferon beta: MSYNLLGFLQRSSNFQSQKLLWQLNGRLEYCLKDRMNFDIPEEIKQLQQFQKEDAALTIYEMLQNIFAIFRQDSSSTGWNETIVENLLANVYHQINHLKTVLEEKLEKEDFTRGKLMSSLHLKRYYGRILHYLKAKEYSHCAWTIVRVEILRNFYFINRLTGYLRN
Turning to B1, the “effect on MCP-1 expression in peripheral blood mononuclear cells” value is reported as “reduces MCP-1 expression”.
